According to patent US10500249B2, “Compositions and methods for preventing or treating diseases, conditions, or processes characterized by aberrant fibroblast proliferation and extracellular matrix deposition” (MOERAE MATRIX, INC., priority 2014, dated 2019):

Key:
Test in all cases: Kinase Profiling Assay
Type in all cases: biochemical
Conditions in all cases: 100 μM
Yes (h) = Yes (h) (Homo sapiens, UniProt P07947)
Summary of the method: (§1)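 Activity remaining relative to an uninhibited control was determined by scintillation counting of labeled substrate bound to a negatively charged filter. Radiolabeled phosphate came from ATP; the substrate carried positive charge. Duplicate measurements, within a 266-kinase human panel.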

AMPKα2 (h) = AMPKα2 (h) (Homo sapiens, UniProt P54646)
Summary of the method: as §1

DAPK2 (h) = molecular target: T1, DAPK2 (h) (Homo sapiens, UniProt Q9UIK4)
T1 construct: purchased Millipore
T1 sequence (Q9UIK4 whole entry): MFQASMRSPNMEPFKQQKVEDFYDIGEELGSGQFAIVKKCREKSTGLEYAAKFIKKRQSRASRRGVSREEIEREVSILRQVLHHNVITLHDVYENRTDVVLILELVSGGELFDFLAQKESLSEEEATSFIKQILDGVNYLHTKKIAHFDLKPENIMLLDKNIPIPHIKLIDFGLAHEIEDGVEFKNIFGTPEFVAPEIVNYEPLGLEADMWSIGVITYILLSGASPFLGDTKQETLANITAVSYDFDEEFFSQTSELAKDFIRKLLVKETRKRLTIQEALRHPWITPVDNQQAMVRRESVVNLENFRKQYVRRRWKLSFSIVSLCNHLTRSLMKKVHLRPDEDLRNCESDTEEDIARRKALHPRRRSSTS
Summary of the method: as §1

EGFR(T790M, L858R) (h) = molecular target: T2, EGFR(T790M, L858R) (h) (Homo sapiens, UniProt P00533, L858R/T790M)
T2 construct: purchased Millipore
Summary of the method: as §1

MSSK1 (h) = molecular target: T3, MSSK1 (h) (Homo sapiens, UniProt Q9UPE1)
T3 construct: purchased Millipore
T3 sequence (Q9UPE1 whole entry): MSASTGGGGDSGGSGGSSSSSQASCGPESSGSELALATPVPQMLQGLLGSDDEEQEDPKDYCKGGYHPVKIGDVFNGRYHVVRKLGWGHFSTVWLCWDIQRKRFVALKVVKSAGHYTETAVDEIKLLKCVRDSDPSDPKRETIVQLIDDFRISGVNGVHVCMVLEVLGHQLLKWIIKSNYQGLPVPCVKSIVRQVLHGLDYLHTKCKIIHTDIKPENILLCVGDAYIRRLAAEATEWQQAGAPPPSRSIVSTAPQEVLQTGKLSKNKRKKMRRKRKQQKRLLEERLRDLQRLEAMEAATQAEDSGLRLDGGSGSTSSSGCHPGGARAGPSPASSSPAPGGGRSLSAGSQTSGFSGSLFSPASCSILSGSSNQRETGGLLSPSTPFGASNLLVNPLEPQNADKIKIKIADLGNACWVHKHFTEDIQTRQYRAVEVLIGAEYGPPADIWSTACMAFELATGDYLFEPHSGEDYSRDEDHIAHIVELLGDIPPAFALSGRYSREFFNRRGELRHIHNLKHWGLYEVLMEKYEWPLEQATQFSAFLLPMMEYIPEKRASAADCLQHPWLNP
Summary of the method: as §1

Txk (h) = molecular target: T4, Txk (h) (Homo sapiens, UniProt P42681)
T4 sequence (P42681 1-527): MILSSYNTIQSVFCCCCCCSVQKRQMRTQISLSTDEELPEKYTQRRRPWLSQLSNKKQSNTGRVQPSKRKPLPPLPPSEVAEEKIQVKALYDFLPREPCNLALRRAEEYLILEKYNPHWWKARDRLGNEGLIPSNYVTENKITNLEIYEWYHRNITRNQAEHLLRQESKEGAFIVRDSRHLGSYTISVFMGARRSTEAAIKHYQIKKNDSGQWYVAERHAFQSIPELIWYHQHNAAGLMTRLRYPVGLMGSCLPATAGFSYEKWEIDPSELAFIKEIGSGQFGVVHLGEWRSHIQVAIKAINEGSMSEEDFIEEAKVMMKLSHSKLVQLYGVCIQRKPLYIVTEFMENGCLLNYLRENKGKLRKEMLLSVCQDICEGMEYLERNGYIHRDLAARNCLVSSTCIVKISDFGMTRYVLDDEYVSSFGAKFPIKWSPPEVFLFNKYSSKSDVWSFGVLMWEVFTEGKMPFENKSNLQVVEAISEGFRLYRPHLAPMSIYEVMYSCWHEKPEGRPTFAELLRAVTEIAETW
Summary of the method: as §1

MRCKβ (h) = molecular target: T5, MRCKβ (h) (Homo sapiens, UniProt Q9Y5S2)
T5 construct: purchased Millipore
T5 sequence (Q9Y5S2 whole entry): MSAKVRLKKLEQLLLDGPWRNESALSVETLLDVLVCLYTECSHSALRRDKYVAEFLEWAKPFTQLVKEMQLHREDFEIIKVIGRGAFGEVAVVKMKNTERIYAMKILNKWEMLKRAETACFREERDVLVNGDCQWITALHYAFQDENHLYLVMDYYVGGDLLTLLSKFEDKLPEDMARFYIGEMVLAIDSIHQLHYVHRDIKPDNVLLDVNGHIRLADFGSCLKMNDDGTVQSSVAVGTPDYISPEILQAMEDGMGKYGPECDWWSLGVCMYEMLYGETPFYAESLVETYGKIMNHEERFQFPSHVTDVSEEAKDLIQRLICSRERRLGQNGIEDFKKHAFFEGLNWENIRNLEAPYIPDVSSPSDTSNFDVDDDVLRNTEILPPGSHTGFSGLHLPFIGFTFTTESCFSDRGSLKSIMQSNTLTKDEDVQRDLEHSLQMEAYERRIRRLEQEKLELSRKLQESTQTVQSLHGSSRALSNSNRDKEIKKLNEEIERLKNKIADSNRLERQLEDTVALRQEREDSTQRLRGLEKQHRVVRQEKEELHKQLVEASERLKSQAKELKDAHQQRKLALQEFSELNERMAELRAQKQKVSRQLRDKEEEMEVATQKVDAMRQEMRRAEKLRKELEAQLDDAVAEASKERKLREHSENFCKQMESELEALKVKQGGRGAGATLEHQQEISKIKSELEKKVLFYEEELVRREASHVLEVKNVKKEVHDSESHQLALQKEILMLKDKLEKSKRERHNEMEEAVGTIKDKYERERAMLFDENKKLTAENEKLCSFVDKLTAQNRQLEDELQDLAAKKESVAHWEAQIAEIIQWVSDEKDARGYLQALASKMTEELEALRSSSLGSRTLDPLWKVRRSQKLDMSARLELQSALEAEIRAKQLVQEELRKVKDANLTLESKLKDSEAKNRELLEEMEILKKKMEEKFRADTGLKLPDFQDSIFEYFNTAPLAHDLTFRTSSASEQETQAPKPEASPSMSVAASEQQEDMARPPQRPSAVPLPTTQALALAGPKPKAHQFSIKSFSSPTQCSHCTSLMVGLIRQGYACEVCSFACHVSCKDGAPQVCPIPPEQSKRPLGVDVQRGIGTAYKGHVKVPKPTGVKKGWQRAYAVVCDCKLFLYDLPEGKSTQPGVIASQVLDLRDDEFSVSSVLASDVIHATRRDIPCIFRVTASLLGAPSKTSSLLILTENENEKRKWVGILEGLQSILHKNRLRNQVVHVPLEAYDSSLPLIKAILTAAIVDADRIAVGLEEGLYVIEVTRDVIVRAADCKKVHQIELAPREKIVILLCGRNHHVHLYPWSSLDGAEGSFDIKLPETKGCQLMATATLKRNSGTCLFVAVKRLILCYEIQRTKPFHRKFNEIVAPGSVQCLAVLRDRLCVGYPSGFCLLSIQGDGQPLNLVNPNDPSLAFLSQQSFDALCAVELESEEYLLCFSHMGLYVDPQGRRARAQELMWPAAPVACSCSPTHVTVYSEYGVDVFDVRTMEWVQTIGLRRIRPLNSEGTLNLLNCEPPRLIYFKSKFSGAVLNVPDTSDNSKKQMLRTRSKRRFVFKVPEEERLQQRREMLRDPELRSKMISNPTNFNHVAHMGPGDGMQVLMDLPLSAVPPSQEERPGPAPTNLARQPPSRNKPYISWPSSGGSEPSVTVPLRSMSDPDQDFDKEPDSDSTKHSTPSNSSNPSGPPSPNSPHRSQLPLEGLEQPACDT
Summary of the method: as §1

FGFR1(V561M) (h) = FGFR1(V561M) (h) (Homo sapiens, UniProt P11362, V561M)
Chain of FGFR1(V561M) (h) (P11362 22-822 V561M): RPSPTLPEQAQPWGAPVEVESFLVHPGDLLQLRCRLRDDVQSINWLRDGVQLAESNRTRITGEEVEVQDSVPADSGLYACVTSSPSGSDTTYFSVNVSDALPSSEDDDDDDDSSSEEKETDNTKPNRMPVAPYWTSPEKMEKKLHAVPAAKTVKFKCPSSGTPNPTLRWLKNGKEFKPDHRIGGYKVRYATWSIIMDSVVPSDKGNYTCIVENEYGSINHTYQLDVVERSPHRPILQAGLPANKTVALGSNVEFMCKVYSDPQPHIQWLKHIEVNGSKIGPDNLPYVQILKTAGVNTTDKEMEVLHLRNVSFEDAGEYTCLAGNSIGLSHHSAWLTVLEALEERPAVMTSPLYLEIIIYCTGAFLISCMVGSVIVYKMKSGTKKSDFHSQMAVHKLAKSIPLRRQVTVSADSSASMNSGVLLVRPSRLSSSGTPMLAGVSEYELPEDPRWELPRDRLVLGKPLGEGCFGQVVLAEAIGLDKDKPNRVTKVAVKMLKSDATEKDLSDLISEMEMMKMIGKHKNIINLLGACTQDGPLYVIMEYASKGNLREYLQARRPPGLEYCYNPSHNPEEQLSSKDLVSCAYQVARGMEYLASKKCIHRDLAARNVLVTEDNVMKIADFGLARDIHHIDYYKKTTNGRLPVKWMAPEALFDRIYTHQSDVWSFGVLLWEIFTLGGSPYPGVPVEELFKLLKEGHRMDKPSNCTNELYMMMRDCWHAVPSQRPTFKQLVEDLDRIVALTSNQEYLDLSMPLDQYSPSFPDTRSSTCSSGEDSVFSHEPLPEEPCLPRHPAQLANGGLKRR
Summary of the method: as §1

IKKβ (h) = molecular target: T6, IKKβ (h) (Homo sapiens, UniProt O14920)
T6 construct: purchased Millipore
T6 sequence (O14920 1-756): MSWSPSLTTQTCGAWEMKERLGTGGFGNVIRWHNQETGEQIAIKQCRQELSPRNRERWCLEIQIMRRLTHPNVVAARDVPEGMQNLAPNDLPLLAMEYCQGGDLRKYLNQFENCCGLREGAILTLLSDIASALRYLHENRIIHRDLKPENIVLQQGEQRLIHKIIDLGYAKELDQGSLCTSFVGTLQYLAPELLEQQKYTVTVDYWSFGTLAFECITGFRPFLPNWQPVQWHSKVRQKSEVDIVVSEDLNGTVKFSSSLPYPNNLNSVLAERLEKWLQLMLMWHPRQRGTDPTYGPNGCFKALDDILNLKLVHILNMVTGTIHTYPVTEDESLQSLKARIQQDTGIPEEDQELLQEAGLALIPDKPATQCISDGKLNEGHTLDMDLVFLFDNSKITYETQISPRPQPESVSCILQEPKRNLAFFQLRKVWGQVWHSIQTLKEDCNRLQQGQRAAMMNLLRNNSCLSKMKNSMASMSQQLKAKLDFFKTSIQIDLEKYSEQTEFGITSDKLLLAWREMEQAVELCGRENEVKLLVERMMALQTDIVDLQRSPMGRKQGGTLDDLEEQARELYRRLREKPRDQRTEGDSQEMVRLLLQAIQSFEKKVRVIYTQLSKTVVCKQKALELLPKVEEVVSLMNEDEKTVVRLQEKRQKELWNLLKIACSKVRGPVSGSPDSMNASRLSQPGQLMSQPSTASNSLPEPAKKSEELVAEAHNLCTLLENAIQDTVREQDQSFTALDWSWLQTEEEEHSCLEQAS
Summary of the method: as §1

ACK1 (h) = ACK1 (h) (Homo sapiens, UniProt Q07912)
Chain of ACK1 (h) (Q07912 whole entry): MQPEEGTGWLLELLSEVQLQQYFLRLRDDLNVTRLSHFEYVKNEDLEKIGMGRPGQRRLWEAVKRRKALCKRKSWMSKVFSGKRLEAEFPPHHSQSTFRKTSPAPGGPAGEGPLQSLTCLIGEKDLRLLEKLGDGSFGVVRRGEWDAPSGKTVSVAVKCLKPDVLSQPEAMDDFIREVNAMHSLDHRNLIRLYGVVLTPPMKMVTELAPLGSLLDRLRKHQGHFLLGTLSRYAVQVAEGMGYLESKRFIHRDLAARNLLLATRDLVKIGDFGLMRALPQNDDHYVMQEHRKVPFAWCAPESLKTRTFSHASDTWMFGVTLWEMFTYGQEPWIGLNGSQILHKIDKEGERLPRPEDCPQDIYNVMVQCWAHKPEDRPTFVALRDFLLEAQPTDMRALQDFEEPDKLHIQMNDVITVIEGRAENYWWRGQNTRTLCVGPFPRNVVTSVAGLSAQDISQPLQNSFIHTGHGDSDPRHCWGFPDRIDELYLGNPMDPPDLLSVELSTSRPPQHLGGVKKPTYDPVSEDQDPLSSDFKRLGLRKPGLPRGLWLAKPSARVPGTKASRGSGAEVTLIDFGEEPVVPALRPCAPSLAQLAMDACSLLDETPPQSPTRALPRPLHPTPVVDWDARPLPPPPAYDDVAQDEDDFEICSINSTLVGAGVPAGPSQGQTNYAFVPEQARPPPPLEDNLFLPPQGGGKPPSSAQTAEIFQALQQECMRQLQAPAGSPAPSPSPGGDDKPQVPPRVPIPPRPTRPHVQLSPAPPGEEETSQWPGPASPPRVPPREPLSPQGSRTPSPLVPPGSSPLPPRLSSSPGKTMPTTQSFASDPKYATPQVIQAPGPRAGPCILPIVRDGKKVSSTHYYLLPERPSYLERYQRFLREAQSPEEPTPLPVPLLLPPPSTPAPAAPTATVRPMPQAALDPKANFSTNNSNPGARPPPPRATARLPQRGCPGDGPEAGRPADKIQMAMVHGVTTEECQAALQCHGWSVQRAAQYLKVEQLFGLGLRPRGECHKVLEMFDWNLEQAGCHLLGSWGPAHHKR
Summary of the method: as §1

Chain of Yes (h) (P07947 whole entry): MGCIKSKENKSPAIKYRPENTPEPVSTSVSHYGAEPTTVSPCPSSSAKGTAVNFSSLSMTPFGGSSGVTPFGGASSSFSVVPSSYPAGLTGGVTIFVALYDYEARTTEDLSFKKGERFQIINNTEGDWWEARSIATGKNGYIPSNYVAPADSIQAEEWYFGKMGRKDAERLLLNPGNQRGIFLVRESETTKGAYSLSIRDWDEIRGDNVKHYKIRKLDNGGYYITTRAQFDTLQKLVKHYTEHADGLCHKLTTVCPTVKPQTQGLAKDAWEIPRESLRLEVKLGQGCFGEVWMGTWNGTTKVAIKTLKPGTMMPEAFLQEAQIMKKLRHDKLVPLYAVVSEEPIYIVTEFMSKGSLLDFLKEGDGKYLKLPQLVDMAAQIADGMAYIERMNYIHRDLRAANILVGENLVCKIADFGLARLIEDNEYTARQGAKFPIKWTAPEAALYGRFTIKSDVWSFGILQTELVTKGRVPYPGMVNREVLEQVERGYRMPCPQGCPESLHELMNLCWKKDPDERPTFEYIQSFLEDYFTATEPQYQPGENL

For FAKLAARLYRKALARQLGVAA [MMI-0300], the “% activity” value (Yes (h)) was 67%, the “% activity” value (AMPKα2 (h)) was 54% and the “% activity” value (DAPK2 (h)) was 32%. The “% activity” value (EGFR(T790M, L858R) (h)) was 85%, the “% activity” value (MSSK1 (h)) was 77% and the “% activity” value (Txk (h)) was 48%. For the same sequence, the “% activity” value (MRCKβ (h)) was 83%, the “% activity” value (FGFR1(V561M) (h)) was 74% and the “% activity” value (IKKβ (h)) was 84%.
In the case of “HRRIKAWLKKIKALARQLGVAA (Mammalian) [MMI-0500]”, the “% activity” value (ACK1 (h)) is reported as 64%, the “% activity” value (AMPKα2 (h)) is reported as 9% and the “% activity” value (DAPK2 (h)) is reported as 3%. For the same sequence, the “% activity” value (EGFR(T790M, L858R) (h)) was 53%, the “% activity” value (MSSK1 (h)) was 22% and the “% activity” value (Txk (h)) was 10%. The “% activity” value (MRCKβ (h)) was −10% and the “% activity” value (IKKβ (h)) was 71%.
With “YARAAARQARAKALNRQLGVA (Mammalian) [MMI-0200]” the “% activity” value (ACK1 (h)) was 97%, the “% activity” value (Yes (h)) was 93% and the “% activity” value (AMPKα2 (h)) was 88%. The “% activity” value (DAPK2 (h)) was 92%, the “% activity” value (EGFR(T790M, L858R) (h)) was 108% and the “% activity” value (MSSK1 (h)) was 100%. For the same sequence, the “% activity” value (Txk (h)) was 98% and the “% activity” value (FGFR1(V561M) (h)) was 72%.
With KAFAKLAARLYRKALARQLGVAA [MMI-0400] the “% activity” value (ACK1 (h)) was 95%, the “% activity” value (Yes (h)) was 14% and the “% activity” value (AMPKα2 (h)) was 58%. The “% activity” value (DAPK2 (h)) was 16%, the “% activity” value (EGFR(T790M, L858R) (h)) was 78% and the “% activity” value (MSSK1 (h)) was 75%. For the same sequence, the “% activity” value (Txk (h)) was 37%, the “% activity” value (MRCKβ (h)) was 71% and the “% activity” value (FGFR1(V561M) (h)) was 74%. For the same sequence, the “% activity” value (IKKβ (h)) was 84%.
